According to paper PMC5389548:

Biological target: thrombin (human, UniProt P00734;P00734 328-363;364-622)
Assay: microarray sandwich fluorescence

Binder | Kd [nM]
GGTTGGTGTGGTTGG (structured_DNA, 2'F-ANA at T3, G8, T12; full pattern lost in text) [sequence 2] | 28 ± 1.2
GGTTGGTGTGGTTGG (structured_DNA, 2'F-araT, positions lost in text) [sequence 15] | 85 ± 21
GGTTGGTGTGGTTGG (structured_DNA) [TBA1 control] | 93 ± 23
GGTTGGTGTGGTTGG (structured_DNA, 2'F-araT, positions lost in text) [sequence 16] | 117 ± 44
GGTTGGTGTGGTTGG (structured_DNA, ten 2'F-ANA, positions lost in text) [sequence 11] | 53 ± 16
GGTTGGTGTGGTTGG (structured_DNA, 2'F-ANA at T3, G8, T12; full pattern lost in text) [sequence 1] | 28 ± 1.6
GGTTGGTGTGGTTGG (structured_DNA, 2'F-ANA, positions lost in text) [sequence 3] | 39 ± 10
GGTTGGTGTGGTTGG (structured_DNA, eight 2'F-ANA, positions lost in text) [sequence 6] | 29 ± 2.7
GGTTGGTGTGGTTGG (structured_DNA, 2'F-ANA, positions lost in text) [sequence 4] | 41 ± 3.7
GGTTGGTGTGGTTGG (structured_DNA, ten 2'F-ANA, positions lost in text) [sequence 10] | 45 ± 14
